Data taken from patent US20220259593A1, “CONTROL OF MAMMALIAN GENE DOSAGE USING CRISPR” (The Regents of the University of California, priority 2019, published 2022).
Where a chain is given by its changes, count along the chain named.

B1: cr348 (nucleic acid)
guide: GTTTAAGAGCTAAGCTGGAAGCAGCATAGCAAGTTTAAATAAGGCTAGTCCGTTATCAACTTGAAAAAGTGGCACCGAGTCGGTGCT
modifications: listed as DNA, chemistry not fully specified
B2: cr363 (nucleic acid)
guide: B1 guide with G21A, C60T, T62C, A67G, G69A
modifications: listed as DNA, chemistry not fully specified
B3: cr923 (nucleic acid)
guide: B1 guide with G21A, G72A, A74C, T84G, C86T
modifications: listed as DNA, chemistry not fully specified
B4: cr392 (nucleic acid)
guide: B1 guide with G21A, A32T, A65T
modifications: listed as DNA, chemistry not fully specified
B5: cr606 (nucleic acid)
guide: B1 guide with G21A, C60G, G69C, A74C, C75T, G83A, T84G
modifications: listed as DNA, chemistry not fully specified
B6: cr774 (nucleic acid)
guide: B1 guide with A20C, G21A
modifications: listed as DNA, chemistry not fully specified
B7: cr393 (nucleic acid)
guide: B1 guide with G21A, A65C, G79A
modifications: listed as DNA, chemistry not fully specified
B8: cr995: original, un-modified sgRNA constant region sequence (nucleic acid)
guide: B1 guide with G21A
modifications: listed as DNA, chemistry not fully specified
B9: cr932 (nucleic acid)
guide: B1 guide with G21A, C30T
modifications: listed as DNA, chemistry not fully specified
B10: cr269 (nucleic acid)
guide: B1 guide with G21A, G72C, C73A, G85T, C86G
modifications: listed as DNA, chemistry not fully specified
B11: cr893 (nucleic acid)
guide: B1 guide with G21A, C86T
modifications: listed as DNA, chemistry not fully specified
B12: cr771 (nucleic acid)
guide: B1 guide with G21A, A65G, G72C, C86G
modifications: listed as DNA, chemistry not fully specified
B13: cr956 (nucleic acid)
guide: B1 guide with G21A, T46A
modifications: listed as DNA, chemistry not fully specified
B14: cr195 (nucleic acid)
guide: B1 guide with G21A, A64C, G79T
modifications: listed as DNA, chemistry not fully specified
B15: cr672 (nucleic acid)
guide: B1 guide with G21A, C75T
modifications: listed as DNA, chemistry not fully specified
B16: cr722 (nucleic acid)
guide: B1 guide with G21A, A65G, A74C, T84G
modifications: listed as DNA, chemistry not fully specified
B17: cr968 (nucleic acid)
guide: B1 guide with G21A, C73A, G85T
modifications: listed as DNA, chemistry not fully specified
B18: cr789 (nucleic acid)
guide: B1 guide with G21A, G72C, C86G
modifications: listed as DNA, chemistry not fully specified
B19: cr945 (nucleic acid)
guide: B1 guide with G21A, A66G, G79T
modifications: listed as DNA, chemistry not fully specified
B20: cr698 (nucleic acid)
guide: B1 guide with G21A, G29A, T54A, A64T
modifications: listed as DNA, chemistry not fully specified
B21: cr172 (nucleic acid)
guide: B1 guide with G21A, A47T, A64T
modifications: listed as DNA, chemistry not fully specified
B22: cr156 (nucleic acid)
guide: B1 guide with G21A, T62A, A67T
modifications: listed as DNA, chemistry not fully specified
B23: cr851 (nucleic acid)
guide: B1 guide with G21A, A59G, T70C, G77A, C81T
modifications: listed as DNA, chemistry not fully specified
B24: cr139 (nucleic acid)
guide: B1 guide with G21A, C75A, G83T
modifications: listed as DNA, chemistry not fully specified
B25: cr155 (nucleic acid)
guide: B1 guide with G21A, C60T, T62G, A67C, G69A, C75T, G83A
modifications: listed as DNA, chemistry not fully specified
B26: cr947 (nucleic acid)
guide: B1 guide with A19G, G21A
modifications: listed as DNA, chemistry not fully specified
B27: cr713 (nucleic acid)
guide: B1 guide with G21A, T62A, A65G, A67T
modifications: listed as DNA, chemistry not fully specified
B28: cr666 (nucleic acid)
guide: B1 guide with G21A, C45T, G48A, C73A, A74G, T84C, G85T
modifications: listed as DNA, chemistry not fully specified
B29: cr333 (nucleic acid)
guide: B1 guide with G21A, C60G, T61G, A68C, G69C
modifications: listed as DNA, chemistry not fully specified
B30: cr656 (nucleic acid)
guide: B1 guide with G21A, A74C, T84G
modifications: listed as DNA, chemistry not fully specified
B31: cr144 (nucleic acid)
guide: B1 guide with G21A, A59T, C60G, T62A, A67T, G69C, T70A
modifications: listed as DNA, chemistry not fully specified
B32: cr559 (nucleic acid)
guide: B1 guide with G21A, C73T, G85A
modifications: listed as DNA, chemistry not fully specified
B33: cr128 (nucleic acid)
guide: B1 guide with G21A, A59G, T70C, C76A, G82T
modifications: listed as DNA, chemistry not fully specified
B34: cr510 (nucleic acid)
guide: B1 guide with G21A, A59T, C60G, G69C, T70A
modifications: listed as DNA, chemistry not fully specified
B35: cr901 (nucleic acid)
guide: B1 guide with G21A, A66G
modifications: listed as DNA, chemistry not fully specified
B36: cr489 (nucleic acid)
guide: B1 guide with G21A, A65G, C73G, G85C
modifications: listed as DNA, chemistry not fully specified
B37: cr446 (nucleic acid)
guide: B1 guide with G21A, C45T, G48A, A59T, T70A, C73G, G85C
modifications: listed as DNA, chemistry not fully specified
B38: cr232 (nucleic acid)
guide: B1 guide with G21A, T27C
modifications: listed as DNA, chemistry not fully specified
B39: cr365 (nucleic acid)
guide: B1 guide with G21A, T54A
modifications: listed as DNA, chemistry not fully specified
B40: cr152 (nucleic acid)
guide: B1 guide with G21A, G72A, C73A, G85T, C86T
modifications: listed as DNA, chemistry not fully specified
B41: cr936 (nucleic acid)
guide: B1 guide with G21A, G72T, C86A
modifications: listed as DNA, chemistry not fully specified

Test system: K562 CRISPRi cells
Assay: Constant region variant library pooled growth screen, K562
Assay type: cell-based, human
Conditions: sgRNA constant region variants
Method in brief: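 Library of sgRNA constant-region variants, each paired with 36 targeting sequences (essential-gene and non-targeting), transduced in duplicate into K562 CRISPRi cells, puromycin-selected and grown 4–8 days at >2000× coverage. Activity per variant is its growth phenotype normalised to the same targeting sequence with unmodified constant region.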

[1] = relative to the original, un-modified constant region cr995 (= 1)
[2] = activity relative to the original, un-modified constant region cr995

Row | Molecule | Mean relative activity [1] | Mean relative activity [2]
1 | B1 | 1.008 | –
2 | B2 | – | 1.07
3 | B3 | 1.002 | –
4 | B4 | 0.9999 | –
5 | B5 | 1.007 | –
6 | B6 | 0.9968 | –
7 | B7 | 1.004 | –
8 | B8 | 1 | –
9 | B9 | 0.9947 | –
10 | B10 | 0.9979 | –
11 | B11 | 0.9932 | –
12 | B12 | 1.007 | –
13 | B13 | 0.9983 | –
14 | B14 | 0.9986 | –
15 | B15 | 1.005 | –
16 | B16 | 1.001 | –
17 | B17 | 1.004 | –
18 | B18 | 0.9955 | –
19 | B19 | 1.002 | –
20 | B20 | 0.9956 | –
21 | B21 | 0.9996 | –

Row | Molecule | Mean relative activity [1] | Mean relative activity [2]
22 | B22 | – | 1.072
23 | B23 | 1.002 | –
24 | B24 | 1.006 | –
25 | B25 | 1.003 | –
26 | B26 | 0.9997 | –
27 | B27 | 0.9979 | –
28 | B28 | 0.996 | –
29 | B29 | – | 1.072
30 | B30 | 1.004 | –
31 | B31 | 1.007 | –
32 | B32 | 1.007 | –
33 | B33 | 1.002 | –
34 | B34 | 1.007 | –
35 | B35 | 1.003 | –
36 | B36 | 0.9991 | –
37 | B37 | 0.9926 | –
38 | B38 | 1.006 | –
39 | B39 | 1.007 | –
40 | B40 | 0.9971 | –
41 | B41 | – | 1.072
